Measurements taken from patent US20250277045A1 (KEYMED BIOSCIENCES, published 2025).
Residue numbers refer to the chain shown, from its start.

T1: human BCMA on cells (CHO-hBCMA clone 2C2; NCI-H929; RPMI-8226) (human, UniProt Q02223 1-184)
T1 sequence (looked up): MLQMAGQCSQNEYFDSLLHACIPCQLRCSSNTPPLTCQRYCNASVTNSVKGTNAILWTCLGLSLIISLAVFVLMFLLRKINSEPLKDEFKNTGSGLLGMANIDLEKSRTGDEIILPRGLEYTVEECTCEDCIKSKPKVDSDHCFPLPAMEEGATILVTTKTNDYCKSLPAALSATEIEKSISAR

B1: h38D9-CD3 (bispecific antibody, V domains shown)
VH 1: QVQLVQSGSELKKPGASVKVSCKASGYIFTNFGMNWVREAPGQGLEWMGWINTYTGEQIYADDFKGRFAFSLDTSASTAYLQISSLKAEDTAVYFCARGEIYYGYDVGFVYWGQGTLVTVSS
VL 1: DIVLTQSPASLAVSPGQRATITCRASKSVSTSGYSYMHWYQKKPGQPPKLLIYLGSDLESGVPARFSGSGSGTDFTLTINPVEANDTANYYCQHSRELPWTFGQGTKVEIK
VH 2: EVQLVESGGGLVQPGGSLRLSCAASGFTFNTYAMNWVRKAPGKGLEWVGRIRSKYNNYATYYADSVKDRFTISRDDSKNSLYLQMNSLKTEDTAVYYCVRHGNFGNSYVSWFAYWGQGTLVTVSS
VL 2: QAVVTQEPSLTVSPGGTVTLTCRSSTGAVTTSNYANWVQEKPGQAPRGLIGGTNKRAPWTPARFSGSLLGGKAALTITGAQAEDEAEYYCVLWYSNLWVFGGGTKLTVL
B2: h29A11-CD3 (bispecific antibody, V domains shown)
VH 1: B1 VH 1
VL 1: B1 VL 1 with G55A, D57N
VH 2: B1 VH 2
VL 2: B1 VL 2
B3: h34G2-CD3 (bispecific antibody, V domains shown)
VH 1: B1 VH 1 with I28T, F32Y, Q58R
VL 1: B1 VL 1 with G55A, D57N
VH 2: B1 VH 2
VL 2: B1 VL 2
B4: h15H10-CD3 (bispecific antibody, V domains shown)
VH 1: B1 VH 1 with I28T, E57D, Q58L, A61G, V110A
VL 1: B1 VL 1 with G55A, D57N
VH 2: B1 VH 2
VL 2: B1 VL 2

Columns and labels:
[1] = target: human CD3 on T cells (Jurkat cells; human peripheral blood CD4+ and CD8+ T cells) (human, UniProt P07766 23-207); assay: cell-based or functional assay
human CD3 on T cells (Jurkat cells; human peripheral blood CD4+ and CD8+ T cells), sequence (P07766 23-207): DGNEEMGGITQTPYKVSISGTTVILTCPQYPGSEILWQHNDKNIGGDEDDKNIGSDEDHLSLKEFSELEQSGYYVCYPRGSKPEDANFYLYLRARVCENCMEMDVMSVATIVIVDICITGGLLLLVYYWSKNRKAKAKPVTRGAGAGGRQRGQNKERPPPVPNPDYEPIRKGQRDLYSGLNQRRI

[2] = target: T1, human BCMA on cells (CHO-hBCMA clone …); assay: cell-based or functional assay
For Upregulation of CD25 (%), CD4+T in this document: test concentration or dose not given here.
For Upregulation of CD25 (%), CD8+T in this document: test concentration or dose not given here.
For Upregulation of CD69 (%), CD4+T in this document: test concentration or dose not given here.
For Upregulation of CD69 (%), CD8+T in this document: test concentration or dose not given here.

Binder	Upregulation of CD25 (%), CD4+T [1]	Upregulation of CD25 (%), CD8+T [1]	Upregulation of CD25 EC50, CD4+T [1]	Upregulation of CD25 EC50, CD8+T [1]	Upregulation of CD69 (%), CD4+T [1]	Upregulation of CD69 (%), CD8+T [1]	Upregulation of CD69 EC50, CD4+T [1]	Upregulation of CD69 EC50, CD8+T [1]	Killing EC50 (TDCC, LDH release; PBMC + RPMI-8226) [2]
B1	29%	35%	0.77 nM	1.75 nM	57%	52%	0.52 nM	0.37 nM	1.04 nM
B2	33%	36%	0.45 nM	3.85 nM	47%	58%	0.37 nM	3.39 nM	0.69 nM
B3	27%	33%	1.18 nM	1.28 nM	42%	55%	0.68 nM	0.57 nM	1.02 nM
B4	36%	41%	3.85 nM	2.64 nM	58%	62%	3.39 nM	0.94 nM	1.83 nM
